Reference: paper PMC10786891, “Massively parallel profiling of RNA-targeting CRISPR-Cas13d”
Where a chain is given by its changes, count along the chain named. Names may count otherwise.

T1: EsCas13d, nuclease-dead (Eubacterium siraeum, UniProt B0MS50, R295A;H300A;R849A;H854A)
T1 sequence: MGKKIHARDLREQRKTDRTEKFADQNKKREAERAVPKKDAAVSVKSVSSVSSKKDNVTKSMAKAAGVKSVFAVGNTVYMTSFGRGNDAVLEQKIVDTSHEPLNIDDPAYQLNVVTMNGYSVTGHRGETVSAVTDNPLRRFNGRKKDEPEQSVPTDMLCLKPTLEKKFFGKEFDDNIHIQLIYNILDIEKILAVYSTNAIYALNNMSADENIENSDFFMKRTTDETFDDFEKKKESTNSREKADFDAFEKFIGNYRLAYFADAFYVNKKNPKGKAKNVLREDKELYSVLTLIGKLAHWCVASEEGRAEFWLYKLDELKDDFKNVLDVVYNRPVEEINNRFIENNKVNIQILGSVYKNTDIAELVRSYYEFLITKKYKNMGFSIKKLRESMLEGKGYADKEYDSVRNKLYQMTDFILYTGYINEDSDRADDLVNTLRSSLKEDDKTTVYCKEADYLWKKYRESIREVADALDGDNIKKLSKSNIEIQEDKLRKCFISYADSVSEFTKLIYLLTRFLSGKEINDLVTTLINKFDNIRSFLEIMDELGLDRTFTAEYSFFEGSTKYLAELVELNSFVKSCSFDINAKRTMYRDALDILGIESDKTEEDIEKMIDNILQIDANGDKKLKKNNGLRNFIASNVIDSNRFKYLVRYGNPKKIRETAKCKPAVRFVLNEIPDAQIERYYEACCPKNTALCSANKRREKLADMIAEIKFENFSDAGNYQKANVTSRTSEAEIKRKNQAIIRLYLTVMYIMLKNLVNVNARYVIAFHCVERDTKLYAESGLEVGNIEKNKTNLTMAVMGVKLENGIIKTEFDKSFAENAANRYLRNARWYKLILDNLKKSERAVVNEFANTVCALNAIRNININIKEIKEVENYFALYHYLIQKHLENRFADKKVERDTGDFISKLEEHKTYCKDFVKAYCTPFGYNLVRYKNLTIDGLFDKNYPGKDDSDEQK

B1: target 1 A9G,U19G (mixed)
RNA 1: CACCCGUGCAAAAAUGCAGGGGUCUAAAACUGAGCGGAUAACCUCUCUAUGG
RNA 2: GGGAAUGGAUCCACAUCUACGAAUUCGUACCAGAGAGAGGUUGUCCGCUCACCGAGAUCGGAAGAGCACACGU
B2: target 1 insA 3' of 11,insA 3' of 8 (mixed)
RNA 1: B1 RNA 1
RNA 2: GGGAAUGGAUCCACAUCUACGAAUUCGUACCAUAGAGAGGUAUAUACCGCUCACCGAGAUCGGAAGAGCACACGU
B3: target 1 insC 3' of 5,insA 3' of 5 (mixed)
RNA 1: B1 RNA 1
RNA 2: B2 RNA 2 with A42U, U43A, A44U, U45C, A46C, C47G, G49A
B4: target 1 insG 3' of 20,insC 3' of 19 (mixed)
RNA 1: B1 RNA 1
RNA 2: B2 RNA 2 with U33G, A34U, G35C, G40A, U41G, A42G, A44U, U45A, A46U
B5: target 1 U10A,G12A (mixed)
RNA 1: B1 RNA 1
RNA 2: B1 RNA 2 with G33U, G40A, U42A, G43A
B6: target 1 U10G,U19G (mixed)
RNA 1: B1 RNA 1
RNA 2: B1 RNA 2 with U42G, G43A
B7: target 1 del4 (mixed)
RNA 1: B1 RNA 1
RNA 2: GGGAAUGGAUCCACAUCUACGAAUUCGUACCAUAGAGAGGUUAUCCGUCACCGAGAUCGGAAGAGCACACGU
B8: target 1 insG 3' of 9,insU 3' of 6 (mixed)
RNA 1: B1 RNA 1
RNA 2: B2 RNA 2 with A42U, U43A, A44G, A46C, C48U
B9: target 1 C2A,A20C (mixed)
RNA 1: B1 RNA 1
RNA 2: B1 RNA 2 with A32C, G33U, G43A, C50A
B10: target 1 insG 3' of 10,insC 3' of 5 (mixed)
RNA 1: B1 RNA 1
RNA 2: B2 RNA 2 with A42U, U43G, A46C, C48G, G49C
B11: target 1 U3G,U19C (mixed)
RNA 1: B1 RNA 1
RNA 2: B1 RNA 2 with G33C, G43A, U49G
B12: target 1 insA 3' of 12,insG 3' of 11 (mixed)
RNA 1: B1 RNA 1
RNA 2: B2 RNA 2 with U41A, A42U, U43G, A44U, U45A, A46U
B13: target 1 insU 3' of 5,insA 3' of 3 (mixed)
RNA 1: B1 RNA 1
RNA 2: GGGAAUGGAUCCACAUCUACGAAUUCGUACCAUAGAGAGGUUAUCCGUCUACACCGAGAUCGGAAGAGCACACGU
B14: target 1 insA 3' of 22,insA 3' of 7 (mixed)
RNA 1: B1 RNA 1
RNA 2: GGGAAUGGAUCCACAUCUACGAAUUCGUACACAUAGAGAGGUUAUCACGCUCACCGAGAUCGGAAGAGCACACGU
B15: target 1 G17C,C21U (mixed)
RNA 1: B1 RNA 1
RNA 2: B1 RNA 2 with C31U, G33U, G35C, G43A
B16: target 1 insC 3' of 19,insC 3' of 3 (mixed)
RNA 1: B1 RNA 1
RNA 2: B14 RNA 2 with A31C, C32A, A33U, U34C, A47C, C48G, G49C, C50U, U51C
B17: target 1 insU 3' of 5,insG 3' of 4 (mixed)
RNA 1: B1 RNA 1
RNA 2: B13 RNA 2 with U50G, A51U
B18: target 1 C6A,C21A (mixed)
RNA 1: B1 RNA 1
RNA 2: B1 RNA 2 with C31A, G33U, G43A, C46A
B19: target 1 A9C,A16G (mixed)
RNA 1: B1 RNA 1
RNA 2: B1 RNA 2 with G33U, A36G, G43C
B20: target 1 insA 3' of 15,insU 3' of 14 (mixed)
RNA 1: B1 RNA 1
RNA 2: B2 RNA 2 with G39A, G40U, U41G, A42G, A44U, U45A, A46U
B21: target 1 insU 3' of 20,insU 3' of 12 (mixed)
RNA 1: B1 RNA 1
RNA 2: B14 RNA 2 with A31C, C32A, A33U, A44U, U45A, C46U, A47C
B22: target 1 insC 3' of 19,insC 3' of 19 (mixed)
RNA 1: B1 RNA 1
RNA 2: B2 RNA 2 with A34C, G35C, G40A, U41G, A42G, A44U, U45A, A46U
B23: target 1 insU 3' of 15,insA 3' of 3 (mixed)
RNA 1: B1 RNA 1
RNA 2: B13 RNA 2 with A38U, G39A, U41G, A43U, U44A, C45U, G47C, U48G
B24: target 1 C6G,A20C (mixed)
RNA 1: B1 RNA 1
RNA 2: B1 RNA 2 with A32C, G33U, G43A, C46G
B25: target 1 del3,del15 (mixed)
RNA 1: B1 RNA 1
RNA 2: GGGAAUGGAUCCACAUCUACGAAUUCGUACCAUAGAAGGUUAUCCGCCACCGAGAUCGGAAGAGCACACGU
B26: target 1 insG 3' of 20,insC 3' of 9 (mixed)
RNA 1: B1 RNA 1
RNA 2: B14 RNA 2 with A31C, C32A, A33G, U45C, C46U, A47C
B27: target 1 insC 3' of 19,insG 3' of 18 (mixed)
RNA 1: B1 RNA 1
RNA 2: B2 RNA 2 with A34C, G35A, A36G, G40A, U41G, A42G, A44U, U45A, A46U
B28: target 1 C2U,U8C (mixed)
RNA 1: B1 RNA 1
RNA 2: B1 RNA 2 with G33U, G43A, U44C, C50U
B29: target 1 insC 3' of 16,insC 3' of 15 (mixed)
RNA 1: B1 RNA 1
RNA 2: B2 RNA 2 with G37C, A38G, G39C, G40A, U41G, A42G, A44U, U45A, A46U
B30: target 1 insA 3' of 15,insA 3' of 12 (mixed)
RNA 1: B1 RNA 1
RNA 2: B2 RNA 2 with G39A, U41G, A44U, U45A, A46U
B31: target 1 U8C,A16U (mixed)
RNA 1: B1 RNA 1
RNA 2: B1 RNA 2 with G33U, A36U, G43A, U44C
B32: target 1 insU 3' of 7,insG 3' of 7 (mixed)
RNA 1: B1 RNA 1
RNA 2: B13 RNA 2 with C46U, U48C, C49G, U50C, A51U
B33: target 1 A20C,C21G (mixed)
RNA 1: B1 RNA 1
RNA 2: B1 RNA 2 with C31G, A32C, G33U, G43A
B34: target 1 insC 3' of 20,insU 3' of 5 (mixed)
RNA 1: B1 RNA 1
RNA 2: B14 RNA 2 with A31C, C32A, A33C, A47C, C48G, G49U
B35: target 1 insG 3' of 14,insG 3' of 14 (mixed)
RNA 1: B1 RNA 1
RNA 2: B2 RNA 2 with U41G, A42G, A44U, U45A, A46U

Target: T1, EsCas13d, nuclease-dead
Test: crRNA (strand 1, pre-loaded); Mg2+; 40 mM Tris-HCl pH 7.5, 150 mM NaCl, 6 mM MgCl2, 1 mM DTT, 0.1% Tween-20, 0.2 mg/ml BSA; 25 C; 10 min per concentration, then washed
Settings: tags: His6-TwinStrep-SUMO cleaved; N-terminal SNAP kept (SNAP-Surface 488); label: 3' end held by stalled T7 RNA polymerase

B1 and B2 are within error of each other in Kd: 49 ± 14 nM for the first, 39.7 ± 3.3 nM for the second.

Going from B3 to B4, the Kd rises from 11.5 ± 0.5 nM to 59 ± 10 nM (5.1-fold). The first binds more tightly here.

Compared with B5, B6 is 15-fold higher in Kd: 5.86 ± 0.25 nM for the first, 90 ± 40 nM for the second.

First: B7
Second: B8
The Kd of the first is 1.7-fold higher: 34 ± 7 nM for the first, 20.3 ± 1.2 nM for the second. The second binds more tightly here.

B9 and B10 are within error of each other in Kd: 36 ± 4 nM for the first, 46 ± 8 nM for the second.

Compared with B11, B12 is 2-fold higher in Kd: 25.1 ± 3.4 nM for the first, 49 ± 6 nM for the second. The first binds more tightly here.

First: B13
Second: B14
The Kd of the first is 2.5-fold higher: 19.9 ± 1.7 nM for the first, 8 ± 0.6 nM for the second. The second binds more tightly here.

Going from B15 to B16, the Kd rises from 7.6 ± 0.7 nM to 30 ± 4 nM (3.9-fold). The first binds more tightly here.

Compared with B17, B18 is 1.9-fold higher in Kd: 12.7 ± 0.9 nM for the first, 23.5 ± 1.7 nM for the second.

Compared with B19, B20 is 3.2-fold lower in Kd: 68 ± 27 nM for the first, 21.1 ± 1.8 nM for the second. The second binds more tightly here.

First: B21
Second: B22
The Kd of the first is 2.5-fold lower: 11.5 ± 0.7 nM for the first, 29.2 ± 3.5 nM for the second. The first binds more tightly here.

Compared with B23, B24 is 4-fold higher in Kd: 8.9 ± 0.6 nM for the first, 36 ± 6 nM for the second.

B25 and B26 are within 1.5-fold of each other in Kd: 30.2 ± 3.3 nM for the first, ~45 nM for the second.

Compared with B27, B28 is 8.8-fold lower in Kd: 89 ± 19 nM for the first, 10.1 ± 0.8 nM for the second.

First: B29
Second: B30
The Kd of the first is 2-fold higher: 84 ± 27 nM for the first, 42 ± 5 nM for the second. The second binds more tightly here.

Going from B31 to B32, the Kd falls from 59 ± 8 nM to 9.1 ± 0.6 nM (6.5-fold).

Going from B33 to B34, the Kd falls from 57 ± 26 nM to 8.6 ± 0.9 nM (6.6-fold).

Work on B35 yielded a Kd of 7.7 ± 0.6 nM.
